Data from patent publication US20260217797A1 (Takeda / Millennium, published 2026).
Like-named read-outs stand apart in the source and are kept apart here.

T1: MERS-CoV [change] (MERS-CoV, UniProt K9N5Q8 18-725)
T1 sequence: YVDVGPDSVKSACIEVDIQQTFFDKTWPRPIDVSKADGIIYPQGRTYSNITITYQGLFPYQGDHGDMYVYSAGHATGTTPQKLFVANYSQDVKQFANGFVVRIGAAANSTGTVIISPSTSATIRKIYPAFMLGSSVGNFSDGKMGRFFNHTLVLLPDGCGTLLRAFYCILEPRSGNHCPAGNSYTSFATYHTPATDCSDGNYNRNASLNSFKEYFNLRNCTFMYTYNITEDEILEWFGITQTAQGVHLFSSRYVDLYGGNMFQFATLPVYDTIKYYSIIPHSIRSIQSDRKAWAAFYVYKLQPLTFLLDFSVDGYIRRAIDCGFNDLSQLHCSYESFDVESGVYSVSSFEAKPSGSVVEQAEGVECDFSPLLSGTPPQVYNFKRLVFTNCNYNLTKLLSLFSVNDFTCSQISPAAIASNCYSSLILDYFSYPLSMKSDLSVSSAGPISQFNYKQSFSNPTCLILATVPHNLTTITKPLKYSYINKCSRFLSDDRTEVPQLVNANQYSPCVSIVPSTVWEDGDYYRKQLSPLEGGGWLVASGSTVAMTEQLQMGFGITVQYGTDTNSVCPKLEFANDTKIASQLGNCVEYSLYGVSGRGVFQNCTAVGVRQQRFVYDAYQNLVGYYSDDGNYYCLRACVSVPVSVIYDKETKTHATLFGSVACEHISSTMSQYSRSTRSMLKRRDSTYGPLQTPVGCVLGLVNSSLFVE


Assays:
[1] = biological target: SARS-CoV-2 S Trimer (SARS-CoV-2, UniProt P0DTC2 16-1213); assay: Octet BLI, IgG, avid
[2] = biological target: T2, SARS-CoV-2 wild type spike protein (on reporter virus particles) (SARS-CoV-2, UniProt P0DTC2 14-1273); assay: cell-based or functional assay
[3] = biological target: T2, SARS-CoV-2 wild type spike protein (on …); assay: cell-based or functional assay; remark: listed apart in the source
[4] = biological target: T2, SARS-CoV-2 wild type spike protein (on …); assay: cell-based or functional assay; remark: listed apart in the source
[5] = biological target: T2, SARS-CoV-2 wild type spike protein (on …); assay: cell-based or functional assay; remark: listed apart in the source
[6] = biological target: SARS-CoV-2 Spike S1-His (SARS-CoV-2, UniProt P0DTC2 16-685); assay: Octet BLI, IgG, monovalent
[7] = biological target: SARS-CoV1 Spike [change] (SARS-CoV-1, UniProt P59594 14-667); assay: Octet BLI, IgG, monovalent
[8] = biological target: T1, MERS-CoV [change]; assay: Octet BLI, IgG, monovalent
[9] = biological target: T2, SARS-CoV-2 wild type spike protein (on …); assay: cell-based or functional assay; remark: listed apart in the source
[10] = biological target: SARS-CoV-1 spike protein (SARS-CoV-1, UniProt P59594 14-1255); assay: cell-based or functional assay
[11] = biological target: Bat coronavirus WIV16 spike protein (Bat coronavirus WIV16); assay: cell-based or functional assay
[12] = biological target: SARS-CoV-2 WT RBD (SARS-CoV-2, UniProt P0DTC2 319-541); assay: Octet BLI single point, monovalent
[13] = biological target: T2, SARS-CoV-2 wild type spike protein (on …); assay: cell-based or functional assay; remark: listed apart in the source

Binder	Kd [1]	PsV neutralization IC50 [2]	PsV neutralization IC90 [2]	SARS2 IC50 [3]	PsV IC50, Test 1 [4]	PsV IC50, Test 2 [4]	PsV Neut Assay IC50 [5]	Kd [6]	binding result [7]	binding result [8]	PsV neutralization IC50 [9]	PsV neutralization IC90 [9]	PsV neutralization IC50 [10]	PsV neutralization IC90 [10]	PsV neutralization IC50 [11]	PsV neutralization IC90 [11]	Kd [7]	Kd [12]	PSV IC50 [13]
A-9 (antibody, V domains shown) VH: EVQLVESGGGLVKPGRSLRLSCAASGFTFADYAMSWFRQAPGKGLEWVGFIRSKPYGGTTEYAASVKGRFTISRDDSKSIAYLQMNSLKTEDTAVYYCSRDPWYCSGGDCYAVTGSWFDPWGQGTLVTVSS VL: DIVLTQSPSSLSASVGDRVTITCQASQDIKKYLNWYQQKPGKAPKLLIYDVSNLETGVPSRFSGSGSGTDFTFTISSLQPEDVAIYYCQQYDNLPQTFGQGTKVDIK	1 nM	0.011 µg/mL	0.164 µg/mL	0.03 nM	0.03 nM	0.04 nM	0.208 nM	5.89 nM	no binding	no binding	–	–	–	–	–	–	–	–	–
A-18 (antibody, V domains shown) VH: EVQLLESGGGLVQPGGSLRLSCAASGFTFSRYWMHWVRQAPGKGLVWVSRINSDGSSTTYADSVKGRFTISRDNAKNTLYLQMNSLRAEDTAVYYCARELYYYDSRGAEEGEGWFDPWGQGTLVTVSS VL: QSVLTQPPSVSGAPGQRVTISCTGISSNIGAGYDVHWYQQLPGTAPKLLIYGNSNRPSGVPDRFSASKSGTSAPLAITGLQAEDEADYYCQSSDRSLSGSVFGTGTKLTVL	1.69 nM	0.303 µg/mL	1.82 µg/mL	5.9 nM	0.14 nM	2.78 nM	9.88 nM	1.09 nM	–	no binding	0.076 µg/mL	1.38 µg/mL	0.043 µg/mL	0.046 µg/mL	0.045 µg/mL	0.324 µg/mL	7.43 nM	0.527 nM	–
A-16 (antibody, V domains shown) VH: QVQLVESGGGLVQPGRSLRLSCAASGFTFDDYAMHWVRQAPGKGLEWVSGISWNSGTIGYADSVKGRFIISRDNAKNSLYLQMNSLRGEDMALYYCGKDRKREDPSLGGMDVWGQGTTVTVSS VL: SYELTQPPSVSVAPGQTARITCGGNNIGSKSVHWYQQKPGQAPVLVVYDDTDRPSGIPERFSGSNSGNTATLTISRVEAGDEADYYCQVWDSSSDHYVFGTGTKLTVL	1.15 nM	0.057 µg/mL	0.399 µg/mL	0.61 nM	0.28 nM	0.54 nM	1.24 nM	4.85 nM	no binding	no binding	–	–	–	–	–	–	–	2.09 nM	0.186 µg/mL
A-13 (antibody, V domains shown) VH: QVQLVQSGAEVKKPGASVKVSCKASGYTFTDYYMHWVRQAPGQGLEWMGWINPNSGGTNSAQKFQGRVTMTRDTSINTAYMELSRLRSDDTAVYFCARDSHLAMVRGDFEYWGQGTLVTVSS VL: QSVLTQPASVSGSPGQSITISCTGTSSDVESYNVVSWYQQHPGKAPKLMIYEVSKRPSGVSHRFSGSKSGNTASLTISGLQAEDESDYYCCSYAGNSTWVFGGGTKLTVL	0.843 nM	–	–	–	–	–	0.155 nM	4.91 nM	no binding	no binding	–	–	–	–	–	–	–	–	0.023 µg/mL
A-19 (antibody, V domains shown) VH: QVQLVQSGAEVKKPGESLKISCKGSGYSFTSYWIAWVRQMPGKGLEWMGIIYPGDSDTSYSPSFQGQVTISADKSISTAYLQWSSLKASDTAMYYCARGPNKYNWFDTWGQGTLVTVSS VL: not shown	0.987 nM	–	–	–	–	–	34.1 nM	1.15 nM	no binding	no binding	–	–	–	–	–	–	–	–	5.12 µg/mL
